Biological target: HCMV trimeric gH/gL recombinant protein (human cytomegalovirus, strain Merlin | T4 phage) (UniProt F5HCH8)
Assay: native gel or EMSA

Substance “HCMV trimeric gH/gL recombinant protein (from UniProt F5HCH8;Q6SW67)” has a stoichiometry N of 3.
